Data: patent publication US20030050434A1

Target: polyclonal rabbit antiserum raised against synthetic rat preptin conjugated to ovalbumin
Assay: competitive radioimmunoassay, [125I]preptin tracer, antiserum 1:10,000, PEG-assisted second antibody separation

## DVSTSQAVLPDDFPRYPVGKFFKFDTWRQSAGRL [synthetic rat preptin]
  EC20: 0.344 nM
  EC80: 0.039 nM
  minimum detectable concentration: 11.2 pM
